The labels stand for the following.
B1: CDC25B (parent)
chain: FVDILESDLKDDDAVPPGMESLIS
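Also: lentivirally expressed fusions sorted by FACS into six bins by GFP to DsRed ratio, PSI derived from sequencing read proportions per bin multiplied by bin number.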

Variants of B1 are the subject of this series. The series can be described thus: protein stability index of a GFP-peptide fusion (GPS, HEK-293T) (PSI 1-6); higher = more stable. The conditions noted are these: c terminus: a fixed tail appended.
Take FVDILESDLKDDDAVQPGMESLIS [P16Q]: the protein stability index stood at 2.79.
As to FVDILESDLKDDDAVAPGMESLIS [P16A], the protein stability index was found to be 2.98.
Take FVDILESDLKDDDAVSPGMESLIS [P16S]: the protein stability index was found to be 2.88.
The figure for FVDILESDLKDDDAVTPGMESLIS [P16T] is 2.98; for FVDILESDLKDDDAVVPGMESLIS [P16V] it is 3.07; for FVDILESDLKDDDAVYPGMESLIS [P16Y] it is 2.82.
Turning to FVDILESDLKDDDAVRPGMESLIS [P16R], the protein stability index was found to be 2.59.
The figure for FVDILESDLKDDDAVFPGMESLIS [P16F] is 2.06.
For FVDILESDLKDDDAVGPGMESLIS [P16G], the protein stability index was found to be 3.02.
The figure for FVDILESDLKDDDAVLPGMESLIS [P16L] is 2.76; for FVDILESDLKDDDAVNPGMESLIS [P16N] it is 3.23.
The figure for FVDILESDLKDDDAVHPGMESLIS [P16H] is 3.14; for FVDILESDLKDDDAVDPGMESLIS [P16D] it is 3.62; for FVDILESDLKDDDAVCPGMESLIS [P16C] it is 2.68.
Then FVDILESDLKDDDAVEPGMESLIS [P16E], with 3.04.
For the variant FVDILESDLKDDDAYPPGMESLIS [V15Y], the protein stability index amounted to 3.1.
As for FVDILESDLKDDDAWPPGMESLIS [V15W], the protein stability index was 2.69.
The figure for FVDILESDLKDDDATPPGMESLIS [V15T] is 2.92.
Then FVDILESDLKDDDAVPWGMESLIS [P17W], with 1.81; and FVDILESDLKDDDAVPRGMESLIS [P17R], with 2.19; and FVDILESDLKDDDAVPIGMESLIS [P17I], with 2.45.
The figure for FVDILESDLKDDDAVPNGMESLIS [P17N] is 2.66; for FVDILESDLKDDDAVPHGMESLIS [P17H] it is 2.61.
Regarding FVDILESDLKDDDAVPYGMESLIS [P17Y], the protein stability index worked out at 2.71.
For the variant FVDILESDLKDDDAVPGGMESLIS [P17G], the protein stability index worked out at 3.25.
The figure for FVDILESDLKDDDAVPLGMESLIS [P17L] is 2.43.
For FVDILESDLKDDDAVPTGMESLIS [P17T], the protein stability index turned out to be 3.51.
The figure for FVDILESDLKDDDAVPFGMESLIS [P17F] is 2.21.
The figure for FVDILESDLKDDDAVPVGMESLIS [P17V] is 2.27; for FVDILESDLKDDDAVPSGMESLIS [P17S] it is 2.72; for FVDILESDLKDDDAVPCGMESLIS [P17C] it is 2.58.
As to FVDILESDLKDDDAVPKGMESLIS [P17K], the protein stability index turned out to be 2.45.
The figure for FVDILESDLKDDDAVPMGMESLIS [P17M] is 2.69; for FVDILESDLKDDDAVPQGMESLIS [P17Q] it is 3.2; for FVDILESDLKDDDAVPEGMESLIS [P17E] it is 3.6.
For the variant FVDILESDLKDDDAVPDGMESLIS [P17D], the protein stability index was 3.2.
For FVDILESDLKDDDAVPAGMESLIS [P17A], the protein stability index is 2.95.
Take FVDILESDLKDDDAVPPGMESLIW [S24W]: the protein stability index worked out at 1.72.
On to FVDILESDLKDDDAVPPGMESLIL [S24L], for which the protein stability index was 2.18.
The figure for FVDILESDLKDDDAVPPGMESLIR [S24R] is 2.96.
As for FVDILESDLKDDDAVPPGMESLIH [S24H], the protein stability index came to 2.94.
Consider FVDILESDLKDDDAVPPGMESLIN [S24N], for which the protein stability index came out at 2.85.
In the case of FVDILESDLKDDDAVPPGMESLIC [S24C], the protein stability index turned out to be 2.66.
The figure for FVDILESDLKDDDAVPPGMESLIE [S24E] is 3.27; for FVDILESDLKDDDAVPPGMESLIK [S24K] it is 2.82; for FVDILESDLKDDDAVPPGMESLIA [S24A] it is 3.1.
As to FVDILESDLKDDDAVPPGMESLIM [S24M], the protein stability index was determined as 2.52.
In the case of FVDILESDLKDDDAVPPGMESLIY [S24Y], the protein stability index is 2.47.
In the case of FVDILESDLKDDDAVPPGMESLIT [S24T], the protein stability index came to 3.02.
The figure for FVDILESDLKDDDAVPPGMESLID [S24D] is 3.45; for FVDILESDLKDDDAVPPGMESLIQ [S24Q] it is 3.9.
Consider FVDILESDLKDDDAVPPGMESLIV [S24V], for which the protein stability index is 2.41.
On to FVDILESDLKDDDAVPPGMESLIF [S24F], for which the protein stability index was found to be 2.01.
As to FVDILESDLKDDDAVPPGMESLIP [S24P], the protein stability index is 2.57.
The figure for FVDILESDLKDDDAVPPGMESLII [S24I] is 2.69; for FVDILESDLKDDDAVPPGMESLIG [S24G] it is 3.02.
For the variant FVDILESDLKDDDAVPPGMESRIS [L22R], the protein stability index is 2.66.
Regarding FVDILESDLKDDDAVPPGMESMIS [L22M], the protein stability index is 3.1.
Take FVDILESDLKDDDAVPPGMESWIS [L22W]: the protein stability index is 2.43.
Then FVDILESDLKDDDAVPPGMESTIS [L22T], with 3.65.
Consider FVDILESDLKDDDAVPPGMESIIS [L22I], for which the protein stability index was determined as 2.77.
For the variant FVDILESDLKDDDAVPPGMESVIS [L22V], the protein stability index stood at 3.19.
Take FVDILESDLKDDDAVPPGMESKIS [L22K]: the protein stability index was determined as 2.99.
Take FVDILESDLKDDDAVPPGMESSIS [L22S]: the protein stability index was 3.66.
Consider FVDILESDLKDDDAVPPGMESCIS [L22C], for which the protein stability index turned out to be 3.15.
Turning to FVDILESDLKDDDAVPPGMESPIS [L22P], the protein stability index is 3.36.
The figure for FVDILESDLKDDDAVPPGMESYIS [L22Y] is 2.47.
In the case of FVDILESDLKDDDAVPPGMESGIS [L22G], the protein stability index was 3.21.
FVDILESDLKDDDAVPPGMESQIS [L22Q]: the protein stability index came out at 3.32.
Then FVDILESDLKDDDAVPPGMESNIS [L22N], with 2.71; and FVDILESDLKDDDAVPPGMESEIS [L22E], with 3.92.
With FVDILESDLKDDDAVPPGMESAIS [L22A], the protein stability index worked out at 3.37.
FVDILESDLKDDDAVPPGMESHIS [L22H]: the protein stability index was 3.52.
The figure for FVDILESDLKDDDAVPPGMESDIS [L22D] is 3.67; for FVDILESDLKDDDAVPPGMESFIS [L22F] it is 2.63.
For the variant FVDILESDLKDDDAVPPGWESLIS [M19W], the protein stability index is 2.67.
On to FVDILESDLKDDDAVPPGNESLIS [M19N], for which the protein stability index is 3.4.
As to FVDILESDLKDDDAVPPGFESLIS [M19F], the protein stability index is 2.83.
Then FVDILESDLKDDDAVPPGSESLIS [M19S], with 3.45; and FVDILESDLKDDDAVPPGDESLIS [M19D], with 3.48.
For FVDILESDLKDDDAVPPGEESLIS [M19E], the protein stability index was found to be 3.37.
As to FVDILESDLKDDDAVPPGHESLIS [M19H], the protein stability index stood at 2.89.
The figure for FVDILESDLKDDDAVPPGYESLIS [M19Y] is 2.32; for FVDILESDLKDDDAVPPGRESLIS [M19R] it is 2.55; for FVDILESDLKDDDAVPPGAESLIS [M19A] it is 3.22.
Turning to FVDILESDLKDDDAVPPGKESLIS [M19K], the protein stability index amounted to 3.02.
The figure for FVDILESDLKDDDAVPPGTESLIS [M19T] is 3.09; for FVDILESDLKDDDAVPPGQESLIS [M19Q] it is 3.6.
The figure for FVDILESDLKDDDAVPPGCESLIS [M19C] is 2.91.
Then FVDILESDLKDDDAVPPGVESLIS [M19V], with 3.08; and FVDILESDLKDDDAVPPGGESLIS [M19G], with 3.06; and FVDILESDLKDDDAVPPGIESLIS [M19I], with 2.85.
Take FVDILESDLKDDDAVPPGLESLIS [M19L]: the protein stability index amounted to 3.08.
Then FVDILESDLKDDDAVPPGPESLIS [M19P], with 3.54.

Source of the values: the supplement of paper PMC10567573.
